Measured values from publication PMC4004102.

Key:
[1] = target: AgrC-I (wild type) dimer embedded in nanodiscs (Staphylococcus aureus); assay: SEC-MALS
[2] = target: FAM-AIP-I (fluorescein-labeled AIP-I analog) (Staphylococcus aureus); assay: fluorescence polarisation

B1: AgrC-I (wild type) dimer embedded in nanodiscs (receptor)
chain: MELLNSYNFVLFVLTQMILMFTIPAIISGIKYSKLDYFFIIVISTLSLFLFKMFDSASLIILTSFIIIMYFVKIKWYSILLIMTSQIILYCANYMYIVIYAYITKISDSIFVIFPSFFVVYVTISILFSYIINRVLKKISTPYLILNKGFLIVISTILLLTFSLFFFYSQINSDEAKVIRQYSFIFIGITIFLSILTFVISQFLLKEMKYKRNQEEIETYYEYTLKIEAINNEMRKFRHDYVNILTTLSEFIREDDMPGLRDYFNKNIVPMKDNLQMNAIKLNGIENLKVREIKGLITAKILRAQEMNIPISIEIPDEVSSINLNMIDLSRSIGIILDNAIEASTEIDDPIIRVAFIESENSVTFIVMNKCADDIPRIHELFQESFSTKGEGRGLGLSTLKEIADNADNVLLDTIIENGFFIQKVEIINN
modifications: not checked
With B1 the stoichiometry N [1] was 2 and the Kd [2] was 122 nM.
